Test results as given in the supplement of paper PMC9732359.
± gives the uncertainty stated by the source.

Assay: protein stability index of a GFP-peptide fusion (yeast GPS) (PSI 1-4); higher = more stable; sorted into four equal gates, so the index is relative within each strain
How it was run: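 Mid-log yeast cultures in leucine-free medium, carrying a pooled plasmid library, were sorted into four equal gates by their GFP/Cherry fluorescence ratio. Each plasmid expressed Cherry along with GFP fused upstream of a tiled 17-residue yeast protein peptide. Plasmids recovered from each gate were PCR-amplified and Illumina-sequenced, with reads assigned to strains by barcodes. The protein stability index was obtained by summing each gate's read frequency weighted by its gate number.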

Sequence	protein stability index (doa10∆)	protein stability index (pdr5∆)	protein stability index (san1∆)	protein stability index (ubr1∆)
YYNEEGIHILLYSGLII [RPC82]	2.01 ± 0.1	2.04 ± 0.094	2.14 ± 0.18	2.28 ± 0.037
FAIRDDRDHINPDDLMK [RPT4]	2.65 ± 0.15	2.99 ± 0.14	3.51 ± 0.093	3.33 ± 0.11
LVDNLNAEVVAGNIKCR [BRR2]	1.79 ± 0.087	1.67 ± 0.07	1.72 ± 0.14	1.45 ± 0.075
AACEKLLPPIKIELIKN [RPN12]	1.98 ± 0.19	2.25 ± 0.094	2.44 ± 0.098	1.99 ± 0.072
LAIDNMYILGMCVSKGN [YCG1]	2.19 ± 0.069	2.02 ± 0.061	2.27 ± 0.089	2.42 ± 0.057
KNEKLKFQETLLRQKIE [ISW2]	1.36 ± 0.11	1.37 ± 0.13	1.16 ± 0.15	1.15 ± 0.071
TAVATLLKELSKNAQFI [SMC3]	2.88 ± 0.071	2.66 ± 0.052	2.8 ± 0.049	2.66 ± 0.048
NGNKDSSFNFNKNLPFV [SWI1]	3.21 ± 0.058	3.38 ± 0.068	3.28 ± 0.051	3.31 ± 0.043
GGKSVGFGLVYNSVAEA [RPS24A]	3.11 ± 0.052	3.29 ± 0.05	3.15 ± 0.035	2.84 ± 0.054
IRRLRVLRRLLAKYRDA [RPL19A]	1.19 ± 0.067	1.41 ± 0.058	1.34 ± 0.17	1.25 ± 0.057
LYYRPHINKKSQLDLFL [GRR1]	1.78 ± 0.071	2.17 ± 0.12	1.28 ± 0.1	1.85 ± 0.093
RNSKLLNTKSIQIDEET [MCD1]	3.21 ± 0.23	2.63 ± 0.084	3.18 ± 0.061	3.33 ± 0.12
FEDQVTNILTKVDINAD [PRP28]	3.19 ± 0.2	–	3.2 ± 0.18	–
VIAHLTVEALDFREKAL [RET1]	2.79 ± 0.11	2 ± 0.058	2.12 ± 0.1	2.57 ± 0.062
LGWIHTQTEELKFMAAS [PRP8]	2.59 ± 0.087	2.62 ± 0.077	2.64 ± 0.063	2.71 ± 0.063
GKKSSSSTKDYLTPPHE [RET1]	3.72 ± 0.27	–	3.52 ± 0.22	2.85 ± 0.18
RKQIDETQVLVSTPEKW [BRR2]	2.07 ± 0.052	2.46 ± 0.058	2.31 ± 0.055	2.77 ± 0.028
TNLISKISLLRPSFQNN [SWP82]	2.52 ± 0.05	2.69 ± 0.05	2.53 ± 0.071	2.72 ± 0.064
YPESISNELIEHFSHFG [YDL088C/ASM4]	2.76 ± 0.067	3.02 ± 0.048	2.89 ± 0.043	2.93 ± 0.034
QLKYDTSVQEKELMLQS [YIL149C/MLP2]	2.23 ± 0.11	2.88 ± 0.17	2.81 ± 0.1	2.53 ± 0.12
RALRIETGNFSWASEGI [RPS8A]	3.15 ± 0.036	3.15 ± 0.037	3.11 ± 0.027	3.052 ± 0.026
SFDFGNENEDEDEGTLN [ARP9]	3.56 ± 0.14	3.38 ± 0.25	3.41 ± 0.1	–
QAYEEIISSNENALIEL [YIL149C/MLP2]	3.18 ± 0.064	3.07 ± 0.061	2.92 ± 0.071	3.23 ± 0.042
GTIKKIEQFAMRRNSKI [POP5]	2.79 ± 0.065	2.73 ± 0.05	2.6 ± 0.059	2.69 ± 0.039
VLNEDDLAFGGEANKHH [RPN5]	3.25 ± 0.09	3.13 ± 0.089	3.25 ± 0.057	3.48 ± 0.12
EALIEFIYDTEKNGGLG [FAS2]	2.52 ± 0.079	2.63 ± 0.076	2.67 ± 0.054	2.17 ± 0.055
IIKDYVLDIVPGSSITE [SRB4]	–	2.58 ± 0.19	–	3.2 ± 0.19
GSIEEPELNVSLNLTDD [MCD1]	3.38 ± 0.058	3.44 ± 0.05	3.15 ± 0.064	3.39 ± 0.04
